In patent US20110111461A1 (Hoffmann-La Roche, published 2011):

What was measured:
[1] = target: T1, human epidermal growth factor receptor (EGFR) (human, UniProt P00533 25-1210); experiment: flow cytometry on A431 cells (FIG. 4)
T1 construct: whole, on cells; also called HER-1; ErbB1
Description: (§1) The purified, monomeric humanized antibody variants were tested for binding to human epidermal growth factor receptor (EGFR, also referred to in the literature as HER-1 or ErbB1) on the A431 human epidermal cell line, using a flow cytometry-based assay. 200,000 cells (e.g., from human A431 cell line) in 180 μl FACS buffer (PBS containing 2% FCS and 5 mM EDTA) were transferred to 5 ml polystyrene tubes and 20 μl 10 fold concentrated anti-EGFR antibody (primary antibody) samples (1-5000 ng/ml final concentration) or PBS only were added. After gently mixing the samples, the tubes were incubated at 4° C. for 30 min in the dark. Subsequently, samples were washed twice with FACS buffer and pelleted at 300×g for 3 min. Supernatant was aspirated off and cells were taken up in 50 μl FACS buffer and 2 μl secondary antibody (anti-Fc-specific F(ab′)2-FITC fragments (Jackson Immuno Research Laboratories, USA)) was added and the tubes were incubated at 4° C. for 30 min. Samples were washed twice with FACS buffer and taken up in 500 μl of FACS buffer for analysis by Flow Cytometry. Binding was determined by plotting the geometric mean fluorescence against the antibody concentrations.
FIGS. 4 and 5 compare the constructs of the series I-HLA1, I-HLA2, I-HLA3, I-HLA4, I-HLA5, and I-HLA6. […]

[2] = target: T1, human epidermal growth factor receptor …; experiment: flow cytometry on A431 cells
Description: as §1
Only the I-HHA has strongly diminished binding activity (see FIG. 2). […] In this experiment, either the light chain, the heavy chain or both chains simultaneously of the ch-ICR62 were replaced by the above mentioned humanized constructs.

[3] = target: T1, human epidermal growth factor receptor …; experiment: flow cytometry on A431 cells; light chain variants paired with I-HHD
Description: as §1
Each of the I-KC variant constructs (I-KCl to I-KC9) was paired with a heavy chain variable region comprising construct I-HHD (SEQ ID NO:16 and SEQ ID NO:15) and a binding assay performed according to the methods described in the previous examples. Constructs I-KCl to I-KC9 were compared to the I-KC construct (SEQ ID NO:46 and SEQ ID NO:45) for binding affinity to EGFR in A431 target cells (FIG. 29). […] Therefore, when paired with a chimeric (e.g., humanized) heavy chain construct specific for EGFR, the light chain can be entirely human (e.g., from a human light chain V gene sequence) and still retain specific binding for EGFR. In particular, CDR2 and CDR3 can be entirely in human germline form.

[4] = target: T1, human epidermal growth factor receptor …; experiment: flow cytometry on A431 cells; chain swap with ch-ICR62 (FIG. 1)
Description: as §1
Only the I-HHA has strongly diminished binding activity (see FIG. 2). […]

binding result [3] | Binder | also measured
– | chimeric rat-human ICR62 antibody (antibody, V domains shown, also called ch-ICR62; chimeric ICR62) VH: QVNLLQSGAALVKPGASVKLSCKGSGFTFTDYKIHWVKQSHGKSLEWIGYFNPNSGYSTYNEKFKSKATLTADKSTDTAYMELTSLTSEDSATYYCTRLSPGGYYVMDAWGQGASVTVSS VL: DIQMTQSPSFLSASVGDRVTINCKASQNINNYLNWYQQKLGEAPKRLIYNTNNLQTGIPSRFSGSGSGTDYTLTISSLQPEDFATYFCLQHNSFPTFGAGTKLELKR | EC50 fold lower relative to I-HLA4 [1]: 2 fold; EC50 [2]: ~0.3 mg/L
– | humanized ICR62 antibody I-HHD / I-KC3 (antibody, human IgG1, V domains shown) VH: QVQLVQSGAEVKKPGSSVKVSCKASGFTFTDYKIHWVRQAPGQGLEWMGYFNPNSGYSTYAQKFQGRVTITADKSTSTAYMELSSLRSEDTAVYYCARLSPGGYYVMDAWGQGTTVTVSS VL: DIQMTQSPSSLSASVGDRVTITCRASQGINNYLGWYQQKPGKAPKRLIYNTNNLQTGVPSRFSGSGSGTEFTLTISSLQPEDFATYYCLQHNSFPTFGQGTKLEIKR | EC50 fold increase relative to the I-KC construct [3]: 10 fold
– | chimeric ICR62 heavy chain (rVH) combined with the I-KB light chain (antibody, human IgG1, V domains shown, also called rVH / I-KB) VH: QVNLLQSGAALVKPGASVKLSCKGSGFTFTDYKIHWVKQSHGKSLEWIGYFNPNSGYSTYNEKFKSKATLTADKSTDTAYMELTSLTSEDSATYYCTRLSPGGYYVMDAWGQGASVTVSS VL: DIQMTQSPSSLSASVGDRVTITCKASQNINNYLNWYQQKPGKAPKRLIYNTNNLQTGVPSRFSGSGSGTEYTLTISSLQPEDFATYYCLQHNSFPTFGQGTKLEIKR | binding result [4]: binds
binds | humanized ICR62 antibody I-HHD / I-KC4 (antibody, human IgG1, V domains shown) VH: QVQLVQSGAEVKKPGSSVKVSCKASGFTFTDYKIHWVRQAPGQGLEWMGYFNPNSGYSTYAQKFQGRVTITADKSTSTAYMELSSLRSEDTAVYYCARLSPGGYYVMDAWGQGTTVTVSS VL: DIQMTQSPSSLSASVGDRVTITCRASQGINNYLNWYQQKPGKAPKRLIYTTNNLQTGVPSRFSGSGSGTEFTLTISSLQPEDFATYYCLQHNSFPTFGQGTKLEIKR | –
binds | humanized ICR62 antibody I-HHD / I-KC8 (antibody, human IgG1, V domains shown) VH: QVQLVQSGAEVKKPGSSVKVSCKASGFTFTDYKIHWVRQAPGQGLEWMGYFNPNSGYSTYAQKFQGRVTITADKSTSTAYMELSSLRSEDTAVYYCARLSPGGYYVMDAWGQGTTVTVSS VL: DIQMTQSPSSLSASVGDRVTITCRASQGINNYLNWYQQKPGKAPKRLIYNTNNLQSGVPSRFSGSGSGTEFTLTISSLQPEDFATYYCLQHNSFPTFGQGTKLEIKR | –
binds | humanized ICR62 antibody I-HHD / I-KC5 (antibody, human IgG1, V domains shown) VH: QVQLVQSGAEVKKPGSSVKVSCKASGFTFTDYKIHWVRQAPGQGLEWMGYFNPNSGYSTYAQKFQGRVTITADKSTSTAYMELSSLRSEDTAVYYCARLSPGGYYVMDAWGQGTTVTVSS VL: DIQMTQSPSSLSASVGDRVTITCRASQGINNYLNWYQQKPGKAPKRLIYNANNLQTGVPSRFSGSGSGTEFTLTISSLQPEDFATYYCLQHNSFPTFGQGTKLEIKR | –
binds | humanized ICR62 antibody I-HHD / I-KC7 (antibody, human IgG1, V domains shown) VH: QVQLVQSGAEVKKPGSSVKVSCKASGFTFTDYKIHWVRQAPGQGLEWMGYFNPNSGYSTYAQKFQGRVTITADKSTSTAYMELSSLRSEDTAVYYCARLSPGGYYVMDAWGQGTTVTVSS VL: DIQMTQSPSSLSASVGDRVTITCRASQGINNYLNWYQQKPGKAPKRLIYNTNSLQTGVPSRFSGSGSGTEFTLTISSLQPEDFATYYCLQHNSFPTFGQGTKLEIKR | –
binds | humanized ICR62 antibody I-HHD / I-KC6 (antibody, human IgG1, V domains shown) VH: QVQLVQSGAEVKKPGSSVKVSCKASGFTFTDYKIHWVRQAPGQGLEWMGYFNPNSGYSTYAQKFQGRVTITADKSTSTAYMELSSLRSEDTAVYYCARLSPGGYYVMDAWGQGTTVTVSS VL: DIQMTQSPSSLSASVGDRVTITCRASQGINNYLNWYQQKPGKAPKRLIYNTSNLQTGVPSRFSGSGSGTEFTLTISSLQPEDFATYYCLQHNSFPTFGQGTKLEIKR | –
binds | humanized ICR62 antibody I-HHD / I-KC9 (antibody, human IgG1, V domains shown) VH: QVQLVQSGAEVKKPGSSVKVSCKASGFTFTDYKIHWVRQAPGQGLEWMGYFNPNSGYSTYAQKFQGRVTITADKSTSTAYMELSSLRSEDTAVYYCARLSPGGYYVMDAWGQGTTVTVSS VL: DIQMTQSPSSLSASVGDRVTITCRASQGINNYLNWYQQKPGKAPKRLIYNTNNLQTGVPSRFSGSGSGTEFTLTISSLQPEDFATYYCLQHNSYPTFGQGTKLEIKR | –
